The record followed here is publication PMC12139977.

Assay [1] concerns the target Syntaxin-1A (rat (endogenous in INS1 (832/13))) (UniProt P32851). Description: proximity ligation.
The target is the same in assay [2]. Description: co-IP.

Sequence of UniProt P32851 (P32851 whole entry): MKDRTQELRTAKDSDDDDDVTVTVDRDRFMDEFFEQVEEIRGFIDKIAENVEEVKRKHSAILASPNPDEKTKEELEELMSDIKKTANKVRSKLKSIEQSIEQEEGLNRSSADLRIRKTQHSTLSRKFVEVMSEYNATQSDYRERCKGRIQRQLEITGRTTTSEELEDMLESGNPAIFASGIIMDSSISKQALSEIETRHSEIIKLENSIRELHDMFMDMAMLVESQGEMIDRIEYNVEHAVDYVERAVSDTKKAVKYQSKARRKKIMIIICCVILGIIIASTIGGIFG

The substance Tomosyn-2 (natural protein) registered a fold increase of PLA signal over the control in assay [1] of 8 fold. Substance “stabilized V5-tagged Tomosyn-2 (natural protein)” registered a fold increase of Tomosyn-2 bound to Stx1A against control cells in assay [2] of 3 fold.
